Results: US11584938B2, “Plant EPSPS mutant containing L195P and S247G mutations and encoding gene and use thereof” (GEVOTO LLC, priority 2017, dated 2023)
Residue numbers refer to the chain shown, from its start. “Also recorded” adds a separate entry of the source.

B1: T1: wheat EPSPS mutant, SEQ ID NO: 16, mutation S269(247)G (protein)
chain: MATSVAAPAAPAGAEEVVLQPIREISGAVQLPGSKSLSNRILLLSALSEGTTVVDNLLNSEDVHYMLEALEALGLSVEADKVAKRAVVVGCGGRFPVEKDAKEEVKLFLGNAGTAMRPLTAAVVAAGGNATYVLDGVPRMRERPIGDLVVGLQQLGADVDCFLGTNCPPVRINGKGGLPGGKVKLSGSISSQYLSSLLMAAPLALEDVEIEIIDKLISVPYVEMTLKLMEHFGVTAEHSDSWDRFYIKGGQKYKSPGNAYVEGDASSAGYFLAGAAITGGTVTVEGCGTTSLQGDVKFAEVLEMMGAKVTWTDTSVTVTGPPRQPFGRKHLKAVDVNMNKMPDVAMTLAVVALFADGPTAIRDVASWRVKETERMVAIRTELTKLGATVEEGPDYCIITPPEKLNITAIDTYDDHRMAMAFSLAACAEVPVTIRDPGCTRKTFPNYFDVLSTFVKN
B2: T3: wheat EPSPS mutant, SEQ ID NO: 20, mutations S269(247)G and P118(101)S (protein)
chain: B1 chain with P118S
B3: R2: rice EPSPS mutant, SEQ ID NO: 32, merely containing the mutation P116(101)S; control (protein)
chain: MASNAAAAAAKAEEIVLQPIREISGAVQLPGSKSLSNRILLLSALSEGTTVVDNLLNSEDVHYMLEALKALGLSVEADKVAKRAVVVGCGGKFPVEKDAKEEVQLFLGNAGTAMRSLTAAVTAAGGNATYVLDGVPRMRERPIGDLVVGLKQLGADVDCFLGTECPPVRVKGIGGLPGGKVKLSGSISSQYLSALLMAAPLALGDVEIEIIDKLISIPYVEMTLRLMERFGVKAEHSDSWDRFYIKGGQKYKSPGNAYVEGDASSASYFLAGAAITGGTVTVQGCGTTSLQGDVKFAEVLEMMGAKVTWTDTSVTVTGPPREPYGKKHLKAVDVNMNKMPDVAMTLAVVALFADGPTAIRDVASWRVKETERMVAIRTELTKLGASVEEGPDYCIITPPEKLNITAIDTYDDHRMAMAFSLAACADVPVTIRDPGCTRKTFPNYFDVLSTFVRN
B4: R3: rice EPSPS mutant, SEQ ID NO: 34, mutations L214(195)P and P116(101)S (protein)
chain: B3 chain with L214P
B5: R4: rice EPSPS mutant, SEQ ID NO: 36, mutation S267(247)G (protein)
chain: B3 chain with S116P, S267G
B6: R1: rice EPSPS mutant, SEQ ID NO: 30, mutation L214(195)P (protein)
chain: B3 chain with S116P, L214P
B7: T4: wheat EPSPS mutant, SEQ ID NO: 22, mutation L216(195)P (protein)
chain: B1 chain with L216P, G269S
B8: T5: wheat EPSPS mutant, SEQ ID NO: 24, mutations L216(195)P and S269(247)G (protein)
chain: B1 chain with L216P
B9: T6: wheat EPSPS mutant, SEQ ID NO: 26, mutations L216(195)P, S269(247)G and P118(101)S (protein)
chain: B1 chain with P118S, L216P
B10: R0: wild-type rice EPSPS, amino acid sequence SEQ ID NO: 28; control (protein, listed as Oryza sativa)
chain: B3 chain with S116P
B11: T2: wheat EPSPS mutant, SEQ ID NO: 18, merely containing the mutation P118(101)S; control (protein)
chain: B1 chain with P118S, G269S

tested on: double knockout E. coli (EPSPS defective E. coli, EDCE); assay: growth of EPSPS defective E. coli transformed by the EPSPS gene in M9 culture media containing different glyphosate concentrations; assay type: cell-based, E. coli DH5α; settings: not given
From the text: A method for detecting the glyphosate resistance of the soybean EPSPS mutant G1 provided in Example 1 and the soybean EPSPS mutant G3 provided in Example 2 is as follows:
according to the sequence of the nucleic acid molecule provided in the example, synthesizing the encoding gene that encodes the soybean EPSPS mutant G1 or G3 using a chemical synthesis method, introducing enzyme sites (Pac1 and Sbf1) at two ends thereof, connecting to an expression vector (for example, a pADV5 vector, the structure of which is as shown in FIG. 15) that has undergone the same restriction enzyme digestion treatment under the action of ligase after restriction enzyme digestion, then transforming double knockout E. coli, picking positive colonies after verification, inoculating the positive colonies to M9 culture media containing different glyphosate concentrations for growth, and observing the growth situation of the E. coli.
The wild-type soybean EPSPS (with an amino acid sequence represented by SEQ ID NO: 2 and an encoding gene sequence represented by SEQ ID NO: 1) and the soybean EPSPS mutant G2 (with an amino acid sequence represented by SEQ ID NO: 6, and a corresponding encoding gene sequence represented by SEQ ID NO: 5) merely containing the mutation P114(101)S were taken as controls.
In the above, the M9 basal culture medium can be prepared by the following method:
5×M9 salt solution: 6.78 g of Na2HPO4, 3.0 g of KH2PO4, 0.5 g of NaCl, and 1.0 g of NH4Cl were weighed, added with ddH2O to 200 ml, and subjected to high-temperature and high-pressure sterilization treatment;
20% glucose: 20 g of glucose was weighed, added with 80 ml of ddH2O for dissolving, diluted to 100 ml, and subjected to filtration and sterilization treatment;
1.0 M MgSO4: 24.6 g of MgSO4-7H2O was weighed, dissolved with 80 ml of ddH2O, diluted to 100 ml, and subjected to sterilization treatment;
1.0 M CaCl2: 11.1 g of CaCl2 was weighed, dissolved with 80 ml of ddH2O, diluted to 100 ml, and subjected to sterilization treatment; and
1000 ml of the M9 basal culture media were prepared by adding ddH2O to 200 ml of 5×M9 salt solution, 20 ml of 20% glucose, 2 ml of 1.0 M MgSO4 and 0.1 ml of 1.0 M CaCl2 to make up to 1000 ml.
In the above, the E. coli used was double knockout E. coli, namely, EPSPS defective E. coli (E. coli DH5α with EPSPS gene and C-P Lyase gene being knocked out, named as EDCE, wherein for a preparation method thereof, reference can be made to a Chinese invention patent with the filing number CN2016103256926).
The glyphosate resistance of the soybean EPSPS mutant G4 provided in Example 3 and the soybean EPSPS mutant G5 provided in Example 4 was verified with reference to the detection method in Experiment Example 1.
The wild-type wheat EPSPS (with an amino acid sequence represented by SEQ ID NO: 14, and a corresponding encoding gene sequence represented by SEQ ID NO: 13) and the wheat EPSPS mutant T2 (with an amino acid sequence represented by SEQ ID NO: 18, and a corresponding encoding gene sequence represented by SEQ ID NO: 17) merely containing the mutation P118(101)S were taken as controls to verify the glyphosate resistance of the wheat EPSPS mutants T1 and T3 provided in Example 5 and Example 6, and reference can be made to Experiment Example 1 for the method.
A method for verifying the glyphosate resistance of the wheat EPSPS mutants T4, T5, and T6 provided in Examples 7-9 is the same as that in Experiment Example 3.
The wild-type rice EPSPS R0 (with an amino acid sequence represented by SEQ ID NO: 28, and a corresponding encoding gene sequence represented by SEQ ID NO: 27) and the rice EPSPS mutant R2 (with an amino acid sequence represented by SEQ ID NO: 32, and a corresponding encoding gene sequence represented by SEQ ID NO: 31) merely containing the mutation P116(101)S were taken as controls to verify the glyphosate resistance of the rice EPSPS mutants R1 and R3 provided in Examples 10 and 11, and reference can be made to Experiment Example 1 for the method. […]

Molecule | glyphosate resistance (overall statement)
B1 | have glyphosate resistance
B2 | have glyphosate resistance

same assay, conditions: concluded from growth of defective E. coli at 0 mM glyphosate

Molecule | EPSPS enzyme activity
B3 | normal EPSPS enzyme activity
B4 | normal EPSPS enzyme activity
B5 | normal EPSPS enzyme activity
B6 | normal EPSPS enzyme activity
B7 | normal EPSPS enzyme activity
B8 | normal EPSPS enzyme activity
B9 | normal EPSPS enzyme activity

same assay, conditions: culture media containing 0 mM glyphosate

Molecule | growth of the E. coli transformed by the EPSPS
B10 | could grow
B3 | could grow
B4 | could grow
B5 | could grow
B6 | could grow
B1 | could grow
B7 | could grow
B8 | could grow
B2 | could grow
B11 | could grow
B9 | could grow

same assay, conditions: culture media containing 1 mM glyphosate

Molecule | growth of the E. coli transformed by the EPSPS | growth of the transformed E. coli compared with E. coli transformed by the control EPSPS named in the value
B1 | could grow normally | obviously superior to that of the E. coli transformed by T0
B7 | could grow normally | 
B8 | could grow normally | 
B2 | could grow normally | 
B11 | could grow normally | 
B9 | could grow normally | 

same assay, conditions: culture media containing 5 mM glyphosate

Molecule | growth of the E. coli transformed by the EPSPS | growth of the transformed E. coli compared with E. coli transformed by the control EPSPS named in the value
B10 | could not grow | 
B6 | could grow normally | 
B1 | did not grow obviously | 
B7 | did not grow obviously | 
B8 | grew obviously | 
B11 | could grow | 
B9 | could grow | obviously superior to that of the E. coli transformed by T2

same assay, conditions: culture media containing 10 mM glyphosate

Molecule | growth of the E. coli transformed by the EPSPS | growth of the transformed E. coli compared with E. coli transformed by the control EPSPS named in the value
B10 | could not grow | 
B3 | could grow | 
B4 | could grow | superior to that of the E. coli transformed by R2
B5 | could grow normally | superior to that of the E. coli transformed by R1
B6 | grew obviously; also recorded: could grow normally | 
B2 | could grow | obviously superior to that of the E. coli transformed by T2
B11 | could grow | 

same assay, conditions: culture media containing 20 mM glyphosate

Molecule | growth of the E. coli transformed by the EPSPS | growth of the transformed E. coli compared with E. coli transformed by the control EPSPS named in the value
B3 | could grow | 
B5 | grew obviously | 
B6 | grew obviously | 
B11 | could grow | 
B9 | could grow | obviously superior to that of the E. coli transformed by T2
